According to patent publication US20140087995A1 (published 2014):
Numbered stars: 1 amine (or outer) side, 2 acyl side, 3 side chain; on linkers, the order of the positions; unused ones are H or OH. Bridge positions count the residues as written; N and C are the ends. Side chains are listed from the residue outwards. Ends that are not written are not given here. * marks the point of attachment. C20 diacid = O=C(O)CCCCCCCCCCCCCCCCCCC(=O)*; γGlu = O=C(O)[C@H](CCC(=O)[*:2])N[*:1]

T1: human amylin receptor (Amylin 3(a) receptor: human calcitonin receptor co-expressed with RAMP-3) (human, UniProt P30988 25-474; O60896 24-148, limits assumed)
T1 construct: whole, on cells; Used as cell membranes prepared from the Amylin 3(a)/CRE-luc BHK cells (Assay V); the complex is called the human amylin receptor; also called hAmylin-R; hAmylinR
T1 sequence (looked up) 1: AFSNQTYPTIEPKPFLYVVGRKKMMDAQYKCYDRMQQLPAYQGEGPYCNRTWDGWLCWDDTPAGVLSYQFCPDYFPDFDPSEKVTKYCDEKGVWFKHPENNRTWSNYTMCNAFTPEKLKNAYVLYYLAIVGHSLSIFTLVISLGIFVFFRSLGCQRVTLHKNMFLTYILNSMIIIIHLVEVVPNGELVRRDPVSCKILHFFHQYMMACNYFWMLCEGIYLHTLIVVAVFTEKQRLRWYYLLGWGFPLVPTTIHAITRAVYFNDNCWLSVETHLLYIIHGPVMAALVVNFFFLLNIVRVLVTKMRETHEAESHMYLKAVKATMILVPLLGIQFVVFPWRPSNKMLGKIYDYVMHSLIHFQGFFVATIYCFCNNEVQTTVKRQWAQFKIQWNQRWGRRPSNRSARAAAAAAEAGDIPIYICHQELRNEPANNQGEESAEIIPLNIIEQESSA
T1 sequence (looked up) 2: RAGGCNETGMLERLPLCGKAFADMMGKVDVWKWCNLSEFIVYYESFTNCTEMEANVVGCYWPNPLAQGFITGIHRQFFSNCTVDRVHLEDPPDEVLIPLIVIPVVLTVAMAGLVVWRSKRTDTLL

T2: human amylin receptor (human, UniProt P30988 25-474; O60896 24-148, limits assumed)
T2 construct: whole, on cells; Used as cell membranes prepared from the Amylin 3(a)/CRE-luc BHK cells (Assay V); also called hAmylin-R; hAmylinR
T2 sequence (looked up) 1: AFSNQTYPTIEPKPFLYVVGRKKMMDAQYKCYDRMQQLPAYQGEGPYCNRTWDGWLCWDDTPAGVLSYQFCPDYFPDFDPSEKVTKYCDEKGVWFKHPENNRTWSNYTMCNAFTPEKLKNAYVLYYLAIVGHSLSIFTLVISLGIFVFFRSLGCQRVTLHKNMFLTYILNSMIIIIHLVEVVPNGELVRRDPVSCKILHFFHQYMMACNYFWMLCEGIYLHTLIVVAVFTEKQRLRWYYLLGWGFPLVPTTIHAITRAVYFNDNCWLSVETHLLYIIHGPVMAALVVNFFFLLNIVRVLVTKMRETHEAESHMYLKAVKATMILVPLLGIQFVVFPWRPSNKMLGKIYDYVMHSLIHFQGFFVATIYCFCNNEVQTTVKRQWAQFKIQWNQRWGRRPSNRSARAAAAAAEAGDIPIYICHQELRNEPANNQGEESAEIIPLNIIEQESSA
T2 sequence (looked up) 2: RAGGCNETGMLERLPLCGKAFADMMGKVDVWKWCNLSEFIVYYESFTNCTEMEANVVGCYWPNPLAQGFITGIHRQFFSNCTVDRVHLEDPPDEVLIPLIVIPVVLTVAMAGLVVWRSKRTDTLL


What follows are binders tested against T1, human amylin receptor (Amylin 3(a) …) (assay: SPA competition binding, displacement of 125I-rat amylin from membranes of BHK cells with human calcitonin receptor + RAMP-3 (Assay V)).
Outline: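 One-site competition analysis of SPA counts yielded IC₅₀ as a measure of affinity. Membranes were at 35 ng/μL final; incubation was 120 min at 25° C, pH 7.4.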

Binder	IC50 [nM]
K([γGlu-γGlu-C20 diacid])CNTATCATQRLASFLRHSSPNFGAIPSSTNVGPETY-NH2 (disulfide 2-7; N-terminus assumed; SMILES CC[C@H](C)[C@H](NC(=O)[C@H](C)NC(=O)CNC(=O)[C@H](Cc1ccccc1)NC(=O)[C@H](CC(N)=O)NC(=O)[C@@H]1CCCN1C(=O)[C@H](CO)NC(=O)[C@H](CO)NC(=O)[C@H](Cc1c[nH]cn1)NC(=O)[C@H](CCCNC(=N)N)NC(=O)[C@H](CC(C)C)NC(=O)[C@H](Cc1ccccc1)NC(=O)[C@H](CO)NC(=O)[C@H](C)NC(=O)[C@H](CC(C)C)NC(=O)[C@H](CCCNC(=N)N)NC(=O)[C@H](CCC(N)=O)NC(=O)[C@@H](NC(=O)[C@H](C)NC(=O)[C@@H]1CSSC[C@H](NC(=O)[C@@H](N)CCCCNC(=O)CC[C@H](NC(=O)CC[C@H](NC(=O)CCCCCCCCCCCCCCCCCCC(=O)O)C(=O)O)C(=O)O)C(=O)N[C@@H](CC(N)=O)C(=O)N[C@@H]([C@@H](C)O)C(=O)N[C@@H](C)C(=O)N[C@@H]([C@@H](C)O)C(=O)N1)[C@@H](C)O)C(=O)N1CCC[C@H]1C(=O)N[C@@H](CO)C(=O)N[C@@H](CO)C(=O)N[C@H](C(=O)N[C@@H](CC(N)=O)C(=O)N[C@H](C(=O)NCC(=O)N1CCC[C@H]1C(=O)N[C@@H](CCC(=O)O)C(=O)N[C@H](C(=O)N[C@@H](Cc1ccc(O)cc1)C(N)=O)[C@@H](C)O)C(C)C)[C@@H](C)O, modifications are with respect to human amylin; also called compound 120)	0.076
K([γGlu-C20 diacid])CNTATCATQRLAEFLRHSSPNFGAIPSSTNVGPETY-NH2 (disulfide 2-7; N-terminus assumed; SMILES CC[C@H](C)[C@H](NC(=O)[C@H](C)NC(=O)CNC(=O)[C@H](Cc1ccccc1)NC(=O)[C@H](CC(N)=O)NC(=O)[C@@H]1CCCN1C(=O)[C@H](CO)NC(=O)[C@H](CO)NC(=O)[C@H](Cc1c[nH]cn1)NC(=O)[C@H](CCCNC(=N)N)NC(=O)[C@H](CC(C)C)NC(=O)[C@H](Cc1ccccc1)NC(=O)[C@H](CCC(=O)O)NC(=O)[C@H](C)NC(=O)[C@H](CC(C)C)NC(=O)[C@H](CCCNC(=N)N)NC(=O)[C@H](CCC(N)=O)NC(=O)[C@@H](NC(=O)[C@H](C)NC(=O)[C@@H]1CSSC[C@H](NC(=O)[C@@H](N)CCCCNC(=O)CC[C@H](NC(=O)CCCCCCCCCCCCCCCCCCC(=O)O)C(=O)O)C(=O)N[C@@H](CC(N)=O)C(=O)N[C@@H]([C@@H](C)O)C(=O)N[C@@H](C)C(=O)N[C@@H]([C@@H](C)O)C(=O)N1)[C@@H](C)O)C(=O)N1CCC[C@H]1C(=O)N[C@@H](CO)C(=O)N[C@@H](CO)C(=O)N[C@H](C(=O)N[C@@H](CC(N)=O)C(=O)N[C@H](C(=O)NCC(=O)N1CCC[C@H]1C(=O)N[C@@H](CCC(=O)O)C(=O)N[C@H](C(=O)N[C@@H](Cc1ccc(O)cc1)C(N)=O)[C@@H](C)O)C(C)C)[C@@H](C)O, modifications are with respect to human amylin)	0.14

Each binder was assayed against T2, human amylin receptor (assay: SPA competition vs 125I-rat amylin, membranes of amylin 3(a) receptor BHK cells (Assay V)).
Experimental: The binding assay was performed using scintillation proximity assay (SPA) beads (RPNQ0001) from PerkinElmer and cell membranes from the Amylin 3(a)/CRE-luc cells (as described in Assay (II)) were used. Membranes were prepared in the following way; the cells were rinsed with PBS and incubated with Versene for approximately 5 min before harvesting. The cells were flushed with PBS and the cell-suspension was centrifuged for 5 min at 1000 rpm. Cells were homogenized (ultrathurrax) in a buffer containing 20 mM Na-HEPES and 10 mM EDTA (pH 7.4) and centrifuged at 20.000 rpm for 15 min. The resulting pellet was resuspended, homogenized and centrifuged (20.000 rpm, 15 min) in a buffer containing 20 mM Na-HEPES and 0.1 mM EDTA (pH 7.4, buffer 2). The resulting pellet was resuspended in buffer 2 and protein concentration was measured (BCA protein Assay, Pierce). The homogenate was kept cold during the whole procedure. The membranes were kept at −80° C. until use. The assay was performed in a 384 well Optiplate (PerkinElmer) in a total volume of 40 ul. Membranes were mixed with SPA beads. Final concentration of membranes 35 ng/μL final and SPA beads was 0.05 mg/well. Test-compounds were dissolved in DMSO and further diluted in assay buffer (50 mM Hepes, pH 7.4, 1 mM CaCl2, 5 mM MgCl₂, 0.1% OA and 0.02% Tween20). […] The final mixture was incubated with shaking at 400 rpm for 120 min at 25° C. prior to centrifugation (1500 rpm, 10 min). Samples were analyzed on TopCounter™ (Packard). The IC₅₀ was calculated using (one site binding competition analysis) GraphPad Prism5 as a measure of receptor affinity.

Binder	IC50 [nM]
{C20 diacid-γGlu-γGlu}-KCNTATCATQRLAEFLRHSSPNFGAIPSSTNVGSNTY-NH2 (disulfide 2-7; SMILES CC[C@H](C)[C@H](NC(=O)[C@H](C)NC(=O)CNC(=O)[C@H](Cc1ccccc1)NC(=O)[C@H](CC(N)=O)NC(=O)[C@@H]1CCCN1C(=O)[C@H](CO)NC(=O)[C@H](CO)NC(=O)[C@H](Cc1c[nH]cn1)NC(=O)[C@H](CCCNC(=N)N)NC(=O)[C@H](CC(C)C)NC(=O)[C@H](Cc1ccccc1)NC(=O)[C@H](CCC(=O)O)NC(=O)[C@H](C)NC(=O)[C@H](CC(C)C)NC(=O)[C@H](CCCNC(=N)N)NC(=O)[C@H](CCC(N)=O)NC(=O)[C@@H](NC(=O)[C@H](C)NC(=O)[C@@H]1CSSC[C@H](NC(=O)[C@H](CCCCN)NC(=O)CC[C@H](NC(=O)CC[C@H](NC(=O)CCCCCCCCCCCCCCCCCCC(=O)O)C(=O)O)C(=O)O)C(=O)N[C@@H](CC(N)=O)C(=O)N[C@@H]([C@@H](C)O)C(=O)N[C@@H](C)C(=O)N[C@@H]([C@@H](C)O)C(=O)N1)[C@@H](C)O)C(=O)N1CCC[C@H]1C(=O)N[C@@H](CO)C(=O)N[C@@H](CO)C(=O)N[C@H](C(=O)N[C@@H](CC(N)=O)C(=O)N[C@H](C(=O)NCC(=O)N[C@@H](CO)C(=O)N[C@@H](CC(N)=O)C(=O)N[C@H](C(=O)N[C@@H](Cc1ccc(O)cc1)C(N)=O)[C@@H](C)O)C(C)C)[C@@H](C)O, also called compound 15)	0.597
KCNTATCATQRLAEFLRHSSPNFGAIPSSTNVGSNTY (C20 diacid-gGlu-2xOEG on alpha amino group of the N-terminal residue; Cys2-Cys7 disulfide and C-terminal amide as in h-amylin, also called compound 19)	0.556
